Residue numbers refer to the chain shown, from its start.
T1: human IL4Rα/Fc (R and D Systems 604-4R) (human, UniProt P24394 26-231, limits assumed, biotin labelled in the assay of Example 5)
T1 construct: bought protein; also called IL-4Rα/Fc (R&D systems Cat. No. 604-4R-050); not shown: Fc part of the bought fusion
T1 sequence (looked up): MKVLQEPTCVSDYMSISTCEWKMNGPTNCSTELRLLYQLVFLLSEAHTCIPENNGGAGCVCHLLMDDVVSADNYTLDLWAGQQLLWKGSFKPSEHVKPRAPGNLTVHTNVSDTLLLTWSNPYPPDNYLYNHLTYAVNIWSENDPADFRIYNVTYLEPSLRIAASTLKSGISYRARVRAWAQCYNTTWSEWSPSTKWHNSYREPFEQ

B1: Antibody 3 scFv (scFv, V domains shown)
VH: QVQLVQSGAEVKKPGASVKVSCKASGYAFTSYYMHWARQAPGQGLEWMGIINPSGGSTSYAQKFQGRVTMTRDTSTSTVYMELSSLRSEDTAVYYCARGKLLKNPWGKGTLVTVSS
VL: QSVLTQPPSVSAAPGQKVTISCSGGSSNIGNSYVSWYQQLPGTAPKLLIYDNNKRPSGIPDRFSGSKSGTSATLAITGLQTGDEADYYCGTWFGTPASNYVFGTGTKLTVL
notes: tested as purified scFv
B2: Antibody 20 scFv (scFv, V domains shown)
VH: B1 VH with L101Y, L102W, K103M, N104Y, P105D
VL: B1 VL with F93D, G94T, T95S, P96T, A97V, S98W, N99E, Y100W, V101P
notes: tested as purified scFv
B3: Antibody 39 scFv (scFv, V domains shown)
VH: B1 VH with S54R, L101Y, L102W, K103M, N104Y, P105D
VL: B1 VL with F93D, G94T, T95S, P96T, S98W, N99E, Y100W, V101P
notes: tested as purified scFv
B4: Antibody 18 scFv (scFv, V domains shown)
VH: B1 VH with L101W, L102W, K103W, N104Q, P105H
VL: B1 VL with F93D, G94T, T95S, P96T, A97T, S98P, N99M, Y100P
notes: tested as purified scFv
B5: Antibody 29 scFv (scFv, V domains shown)
VH: B1 VH with L101Y, L102W, K103M, N104Y, P105D, L111R
VL: B1 VL with F93D, G94T, T95S, A97V, S98W, N99E, Y100W, V101P
notes: tested as purified scFv
B6: Antibody 15 scFv (scFv, V domains shown)
VH: B1 VH with L101W, L102W, K103L, N104Y, P105N
VL: B1 VL with F93D, G94T, T95S, P96T, A97H, S98R, N99H, Y100P, V101L
notes: tested as purified scFv
B7: Antibody 13 scFv (scFv, V domains shown)
VH: B1 VH with L101W, L102W, K103L, N104Y, P105D
VL: B1 VL with F93D, G94T, T95S, P96T, A97T, S98L, N99Q, Y100P, V101L
notes: tested as purified scFv
B8: Antibody 9 scFv (scFv, V domains shown)
VH: B1 VH with L101W, L102W, K103L, N104Y, P105N
VL: B1 VL with F93D, G94T, T95S, P96T, A97T, S98M, N99Y, Y100P, V101L
notes: tested as purified scFv
B9: Antibody 22 scFv (scFv, V domains shown)
VH: B1 VH with L101Y, L102W, K103M, N104Y, P105D
VL: QPVLTQPPSVSAAPGQKVTISCSGGSSNIGNSYVSWYQQLPGTAPKLLIYDNNKRPSGIPDRFSGSKSGTSATLAITGLQTGDEADYFCGTWDTSTVWEWPFGTGTKLTVL
notes: tested as purified scFv
B10: Antibody 4 scFv (scFv, V domains shown)
VH: B1 VH with L101W, L102W, K103L, N104Y, P105N
VL: B9 VL with P2S, F88Y, T96S, V97P, W98P, E99Q, W100P, P101I
notes: tested as purified scFv
B11: Antibody 14 scFv (scFv, V domains shown)
VH: B1 VH with L101W, L102W, K103L, N104Y, P105N
VL: B9 VL with P2S, F88Y, T96P, V97P, W98T, E99K, W100P, P101L
notes: tested as purified scFv
B12: Antibody 10 scFv (scFv, V domains shown)
VH: B1 VH with L101W, L102W, K103L, N104Y, P105D
VL: B9 VL with P2S, F88Y, W98L, E99T, W100P, P101I
notes: tested as purified scFv
B13: Antibody 23 scFv (scFv, V domains shown)
VH: B1 VH with K12R, L101Y, L102W, K103M, N104Y, P105D
VL: B9 VL with P2S, S32N, S57P, F88Y
notes: tested as purified scFv
B14: Antibody 40 scFv (scFv, V domains shown)
VH: B1 VH with L101Y, L102W, K103M, N104Y, P105D
VL: B9 VL with P2S, F88Y, T94S
notes: tested as purified scFv
B15: Antibody 24 scFv (scFv, V domains shown)
VH: B1 VH with S54R, L101Y, L102W, K103M, N104Y, P105D
VL: B9 VL with P2S
notes: tested as purified scFv
B16: Antibody 6 scFv (scFv, V domains shown)
VH: B1 VH with L101Y, L102W, K103M, N104Y, P105D
VL: B9 VL with P2S, F88Y, V97T, W98Y, E99H, W100P, P101I
notes: tested as purified scFv
B17: Antibody 12 scFv (scFv, V domains shown)
VH: B1 VH with L101W, L102W, K103F, N104Y, P105D
VL: B9 VL with P2S, F88Y, V97T, W98M, E99Y, W100P, P101L
notes: tested as purified scFv
B18: Antibody 17 scFv (scFv, V domains shown)
VH: B1 VH with L101W, L102W, K103W, N104Q, P105H
VL: B9 VL with P2S, F88Y, T96P, W98D, E99R, W100P, P101I
notes: tested as purified scFv
B19: Antibody 30 scFv (scFv, V domains shown)
VH: B1 VH with L101Y, L102W, K103M, N104Y, P105D
VL: B9 VL with P2S, Q39R, T43A, F88Y
notes: tested as purified scFv
B20: Antibody 34 scFv (scFv, V domains shown)
VH: B1 VH with T69S, L101Y, L102W, K103M, N104Y, P105D
VL: B9 VL with P2S
notes: tested as purified scFv
B21: Antibody 32 scFv (scFv, V domains shown)
VH: B1 VH with L101Y, L102W, K103M, N104Y, P105D
VL: B9 VL with P2S, V97A
notes: tested as purified scFv
B22: Antibody 19 scFv (scFv, V domains shown)
VH: B1 VH with L101W, L102W, K103W, N104Q, P105H
VL: B9 VL with P2S, F88Y, V97T, W98Y, E99H, W100P, P101I
notes: tested as purified scFv
B23: Antibody 7 scFv (scFv, V domains shown)
VH: B1 VH with L101W, L102W, K103W, N104Q, P105Y
VL: B9 VL with P2S, F88Y, T96S, V97P, W98P, E99Q, W100P, P101I
notes: tested as purified scFv
B24: Antibody 38 scFv (scFv, V domains shown)
VH: B1 VH with T58A, L101Y, L102W, K103M, N104Y, P105D
VL: B9 VL with P2S
notes: tested as purified scFv
B25: Antibody 8 scFv (scFv, V domains shown)
VH: B1 VH with L101W, L102W, K103W, N104Q, P105Y
VL: B9 VL with P2S, F88Y, V97T, W98Y, E99H, W100P, P101I
notes: tested as purified scFv
B26: Antibody 5 scFv (scFv, V domains shown)
VH: B1 VH with L101W, L102W, K103L, N104Y, P105D
VL: B9 VL with P2S, F88Y, T96S, V97P, W98P, E99Q, W100P, P101I
notes: tested as purified scFv
B27: Antibody 35 scFv (scFv, V domains shown)
VH: B1 VH with L101Y, L102W, K103M, N104Y, P105D
VL: B9 VL with P2S, F88Y, T96P
notes: tested as purified scFv
B28: Antibody 31 scFv (scFv, V domains shown)
VH: B1 VH with L101Y, L102W, K103M, N104Y, P105D
VL: B9 VL with P2S, N28S, F88Y, D93A, T96P
notes: tested as purified scFv
B29: Antibody 36 scFv (scFv, V domains shown)
VH: B1 VH with T58A, L101Y, L102W, K103M, N104Y, P105D
VL: B9 VL with P2S, F88Y, T94S
notes: tested as purified scFv
B30: Antibody 26 scFv (scFv, V domains shown)
VH: B1 VH with L101Y, L102W, K103M, N104Y, P105D
VL: B9 VL with P2S
notes: tested as purified scFv
B31: Antibody 11 scFv (scFv, V domains shown)
VH: B1 VH with L101W, L102W, K103F, N104Y, P105D
VL: B9 VL with P2S, F88Y, T96P, V97S, W98M, E99I, W100P, P101L
notes: tested as purified scFv
B32: Antibody 16 scFv (scFv, V domains shown)
VH: B1 VH with L101W, L102W, K103L, N104Y, P105N
VL: B9 VL with P2S, F88Y, V97T, W98Y, E99H, W100P, P101I
notes: tested as purified scFv
B33: Antibody 33 scFv (scFv, V domains shown)
VH: B1 VH with V11E, L101Y, L102W, K103M, N104Y, P105D
VL: B9 VL with P2S, V3A
notes: tested as purified scFv
B34: Antibody 37 scFv (scFv, V domains shown)
VH: B1 VH with S54R, T69A, S88P, L101Y, L102W, K103M, N104Y, P105D
VL: B9 VL with P2S, S26G, N28S, I59V, F88Y, T96P
notes: tested as purified scFv
B35: Antibody 27 scFv (scFv, V domains shown)
VH: B1 VH with K12R, S88P, L101Y, L102W, K103M, N104Y, P105D, L111Q
VL: B9 VL with P2S, S9L, Q39R, F88Y
notes: tested as purified scFv
B36: Antibody 25 scFv (scFv, V domains shown)
VH: B1 VH with S54R, T58A, T69S, L101Y, L102W, K103M, N104Y, P105D
VL: B9 VL with P2S, S71T, F88Y, D93V
notes: tested as purified scFv
B37: Antibody 2 scFv (scFv, V domains shown)
VH: B1 VH with L101W, L102W, K103L, N104Y, P105N
VL: B9 VL with P2S, F88Y, T96Q, V97P, W98P, E99N, W100P, P101L
notes: tested as purified scFv
B38: Antibody 28 scFv (scFv, V domains shown)
VH: B1 VH with L101Y, L102W, K103M, N104Y, P105D, K108N
VL: B9 VL with Q1L, N28S, T43A, S66F, K67R, F88Y, T96P
notes: tested as purified scFv
B39: Antibody 24PGL scFv (scFv, V domains shown)
VH: B1 VH with A37V, S54R, L101Y, L102W, K103M, N104Y, P105D
VL: B9 VL with P2S, A75G
notes: tested as purified scFv
B40: Antibody 37GL scFv (scFv, V domains shown)
VH: B1 VH with A37V, S54R, L101Y, L102W, K103M, N104Y, P105D
VL: B9 VL with P2S, S26G, N28S, A75G, F88Y, T96P
notes: tested as purified scFv; also called NCIMB 41600
B41: Antibody 21 scFv (scFv, V domains shown)
VH: B1 VH with T58A, L101Y, L102W, K103M, N104Y, P105D
VL: B9 VL with P2S, D86V
notes: tested as purified scFv

Legend:
[1] = molecular target: T1, human IL4Rα/Fc (R and D Systems 604-4R); experiment: HTRF receptor-ligand assay, purified scFv against biotinylated human IL4
[2] = molecular target: T2, cynomolgus IL4Rα/Fc HIS6 (HEK expressed) (cynomolgus monkey); experiment: HTRF receptor-ligand assay, purified scFv against biotinylated cynomolgus IL4
T2 construct: also called Cyno IL4R; cynomolgus IL-4Rα HIS Fc (in house HEK-EBNA derived); not shown: HIS6 tag
T2 sequence (chain, as listed by the source): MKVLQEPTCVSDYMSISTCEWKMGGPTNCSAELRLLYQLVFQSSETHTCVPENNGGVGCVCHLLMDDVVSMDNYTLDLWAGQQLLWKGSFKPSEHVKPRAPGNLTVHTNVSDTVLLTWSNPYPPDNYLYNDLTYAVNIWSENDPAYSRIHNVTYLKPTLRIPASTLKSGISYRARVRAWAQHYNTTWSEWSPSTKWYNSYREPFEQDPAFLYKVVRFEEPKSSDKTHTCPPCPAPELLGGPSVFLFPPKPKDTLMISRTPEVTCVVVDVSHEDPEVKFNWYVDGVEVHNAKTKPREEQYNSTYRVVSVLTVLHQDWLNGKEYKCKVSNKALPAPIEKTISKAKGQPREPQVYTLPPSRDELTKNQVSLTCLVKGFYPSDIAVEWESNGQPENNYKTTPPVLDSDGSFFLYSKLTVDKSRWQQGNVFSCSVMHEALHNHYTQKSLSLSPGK

Row | Binder | Ki [1] [nM] | Ki [2] [nM]
1 | B1 | 0.5 | 48
2 | B2 | 0.7 | 4.2
3 | B3 | 0.027 | 1.6
4 | B4 | 0.7 | 56.5
5 | B5 | 0.061 | 2.4
6 | B6 | 1 | 32.3
7 | B7 | 0.3 | 22.2
8 | B8 | 0.1 | 12.9
9 | B9 | 0.3 | 2.6
10 | B10 | 0.8 | 6.8
11 | B11 | 0.6 | 27.7
12 | B12 | 0.5 | 19.6
13 | B13 | 0.2 | 4.8
14 | B14 | 0.031 | 6.5
15 | B15 | 0.049 | 0.8
16 | B16 | 0.3 | 3.5
17 | B17 | 0.3 | 7.2
18 | B18 | 0.9 | 43.5
19 | B19 | 0.069 | 3.6
20 | B20 | 0.056 | 1.2
21 | B21 | 0.075 | 1.3

Row | Binder | Ki [1] [nM] | Ki [2] [nM]
22 | B22 | 0.8 | 18.5
23 | B23 | 1.1 | 16.5
24 | B24 | 0.066 | 2.7
25 | B25 | 0.4 | 9.4
26 | B26 | 0.6 | 3.8
27 | B27 | 0.071 | 2.6
28 | B28 | 0.044 | 2.2
29 | B29 | 0.1 | 5.3
30 | B30 | 0.1 | 1.2
31 | B31 | 0.7 | 26.1
32 | B32 | 0.4 | 8.7
33 | B33 | 0.092 | 1.4
34 | B34 | 0.04 | 0.8
35 | B35 | 0.063 | 2.8
36 | B36 | 0.039 | 1.3
37 | B37 | 0.6 | 4.3
38 | B38 | 0.094 | 1.8
39 | B39 | 0.065 | 0.7
40 | B40 | 0.061 | 0.7
41 | B41 | 0.031 | 1

From patent publication US20180057596A1 (AstraZeneca / MedImmune, published 2018)
